Assay [1] relates to Aβ in A549 cell-conditioned media. The assay can be described thus: ELISA, oligomer versus total Aβ in A549 cell-conditioned media. The following applies: Fig. 8A. The class given is cell-based, human. The protocol: Aβ ELISAs were carried out according to previous protocols for determining the oligomeric and monomeric concentrations of Aβ and as we recently reported. Briefly, total Aβ (monomers + oligomers) was measured by two‐site binding ELISAs using the capture 6E10 monoclonal antibody and 4G8‐conjugated biotin as the detection antibody, which recognizes a distinct epitope, then quantitated using streptavidin‐HRP.
Using the same samples, oligomerized Aβ was measured by a single‐site ELISA in which antibodies targeting the same primary sequence epitope were used for both capture (4G8) and detection (4G8‐biotin). Only oligomers are detected with this approach since the 4G8‐biotin antibody cannot bind to the captured monomer because the epitope is blocked by the 4G8 capture antibody. […]
Conditioned media were immunodepleted (ID) according to the methods previously described and our recently published report. […] The ID media were then carefully removed and analyzed for the presence of the target protein or peptide by ELISA. The same amount of protein (3 µL of 600 µg·mL^−1 total protein) of each sample was analyzed in the experiments. […]
Both epitopes recognized by the 6E10 and 4G8 antibodies have been previously shown to be exposed in Aβ aggregates. […] Fold change relative to controls using anti‐6E10 or anti‐4G8 antibodies incubated with 300 μL of the medium not incubated with cells was calculated. […]
(In general: In an ELISA, binding on a coated surface is turned into a signal by an enzyme label.)

Assay [2] relates to Aβ40. The following applies: HN and AChE compared; cited from earlier work. An excerpt: Amino acid residues involved in direct interactions between HN and Aβ40 were identified previously by molecular modeling. The specific epitopes at the binding interface between HN and Aβ40 were identified, by proteolytic epitope excision and extraction in addition to affinity–mass spectrometric data analysis, to be HN (5–15) and Aβ (17–28). […] Inhibiting the 17–28 region of Aβ reduced aggregation of the neurotoxic amyloid fibrils and related cytotoxicity in SH‐SY5Y, a human neuroblastoma cell ... || Humanin has been previously reported to bind amino acid residues 17–28 of Aβ (Fig. 1). AChE is also known to bind Aβ (1–16) and the Aβ (12–28) region (Fig. 1). Since the binding sites of AChE and HN on Aβ are overlapping, we previously investigated whether HN and AChE can simultaneously bind Aβ [79].

Assay [3] deals with Aβ40. The following applies: decreased lag phase; cited from earlier work. An excerpt: Almost all types of cells produce amyloid beta (Aβ), a peptide well recognized for its role in the development and progression of different stages of Alzheimer's disease (AD). The Aβ peptide is ~ 4 kDa and derived from the sequential processing of the higher molecular weight amyloid precursor protein by two membrane‐bound endoproteases, β‐ and γ‐secretase. Different C‐terminal Aβ heterogeneity results from processing by γ‐secretase, where Aβ40 represents the most abundant isoform (~ 90%) as compared to Aβ42 (~ 10%). Self‐assembled Aβ40/42 peptides into amyloid fib ... || Humanin (HN) is a secreted 21‐ to 24‐amino acid mitochondrial‐derived peptide. Certain amino acid residues in HN have been identified to be involved in different functions, including binding to Aβ [55, 56]. […] HN was identified previously as a binding partner of Aβ, likely modulating its aggregation pathways and counteracting its deleterious effects. […] The specific epitopes at the binding interface between HN and Aβ40 were identified, by proteolytic epitope excision and extraction in addition to affinity–mass spectrometric data analysis, to be HN (5–15) and Aβ (17–28). […] Inhibiting the 17–28 region of Aβ reduced aggregation of the neurotoxic amyloid fibrils and related cytotoxicity in SH‐SY5Y, a human neuroblastoma cell ... || (+ 1 further places)

For another assay, the system named is Aβ42. The following applies: cited from earlier work. From the text: Almost all types of cells produce amyloid beta (Aβ), a peptide well recognized for its role in the development and progression of different stages of Alzheimer's disease (AD). The Aβ peptide is ~ 4 kDa and derived from the sequential processing of the higher molecular weight amyloid precursor protein by two membrane‐bound endoproteases, β‐ and γ‐secretase. Different C‐terminal Aβ heterogeneity results from processing by γ‐secretase, where Aβ40 represents the most abundant isoform (~ 90%) as compared to Aβ42 (~ 10%). Self‐assembled Aβ40/42 peptides into amyloid fib ... || Amino acid residues involved in direct interactions between HN and Aβ40 were identified previously by molecular modeling. The specific epitopes at the binding interface between HN and Aβ40 were identified, by proteolytic epitope excision and extraction in addition to affinity–mass spectrometric data analysis, to be HN (5–15) and Aβ (17–28). […] Inhibiting the 17–28 region of Aβ reduced aggregation of the neurotoxic amyloid fibrils and related cytotoxicity in SH‐SY5Y, a human neuroblastoma cell ... || Acetylcholinesterase (AChE) is an enzyme known for its role in terminating acetylcholine‐mediated neurotransmission at the synaptic cleft. The majority of the cortical AChE in the Alzheimer's brain is mainly associated with the amyloid core of senile plaques. […]

B1: acetylcholinesterase (protein)
chain: EGREDAELLVTVRGGRLRGIRLKTPGGPVSAFLGIPFAEPPMGPRRFLPPEPKQPWSGVVDATTFQSVCYQYVDTLYPGFEGTEMWNPNRELSEDCLYLNVWTPYPRPTSPTPVLVWIYGGGFYSGASSLDVYDGRFLVQAERTVLVSMNYRVGAFGFLALPGSREAPGNVGLLDQRLALQWVQENVAAFGGDPTSVTLFGESAGAASVGMHLLSPPSRGLFHRAVLQSGAPNGPWATVGMGEARRRATQLAHLVGCPPGGTGGNDTELVACLRTRPAQVLVNHEWHVLPQESVFRFSFVPVVDGDFLSDTPEALINAGDFHGLQVLVGVVKDEGSYFLVYGAPGFSKDNESLISRAEFLAGVRVGVPQVSDLAAEAVVLHYTDWLHPEDPARLREALSDVVGDHNVVCPVAQLAGRLAAQGARVYAYVFEHRASTLSWPLWMGVPHGYEIEFIFGIPLDPSRNYTAEEKIFAQRLMRYWANFARTGDPNEPRDPKAPQWPPYTAGAQQYVSLDLRPLEVRRGLRAQACAFWNRFLPKLLSATDTLDEAERQWKAEFHRWSSYMVHWKNQFDHYSKQDRCSDL
Regarding B1, the “oligomer, % of total Aβ remaining after AChE ID” value in assay [1] (AChE-immunodepleted A549 media (non-depleted ~ 63%)) is on record as ~ 47%. In assay [1] (AChE-immunodepleted A549 media), the “total Aβ remaining after AChE ID” value is reported as ~ 57%. In addition, the “affinity for Aβ40” value with Aβ40 [2] was “comparable affinities”. For the same molecule, the “effect on Aβ40 aggregation” value with Aβ40 [3] was “significantly accelerated the aggregation”. In addition, the “effect on Aβ42 oligomeric formation” value in the assay on Aβ42 is reported as “increases Aβ42 oligomeric formation”.

Values taken from publication PMC7714071, “Interaction of amyloid beta with humanin and acetylcholinesterase is modulated by ATP” (FEBS Open Bio, 2020).
